Laboratory results as given in publication PMC4478124.

What was measured:
Assay in all cases: SPR
[1] = target: MBP-P66M-D205A,D207A fusion protein (Borrelia burgdorferi) (UniProt H7C7N8)
[2] = target: MBP-P66M fusion protein (wild-type middle portion of Borrelia burgdorferi P66, a.a. 170-404) (Borrelia burgdorferi) (UniProt H7C7N8)
[3] = target: MBP-P66M-Del202-208 fusion protein (Borrelia burgdorferi) (UniProt H7C7N8)

“purified recombinant human integrin αvβ3 (carrier free) (from UniProt P06756 31-1048; P05106 27-718) (receptor)” was tested, and the Kd [1] was 29.3 µM, the kon [1] was 710 M⁻¹ s⁻¹ and the kon [2] was 321000 M⁻¹ s⁻¹. It also gave a Kd [3] of 178 µM.
“purified recombinant mouse integrin αvβ3 (carrier free) (from UniProt P43406 31-1044; O54890 26-717) (receptor)” was tested, and the Kd [1] was 20.3 µM, the kon [1] was 1450 M⁻¹ s⁻¹ and the kon [2] was 112000 M⁻¹ s⁻¹. For the same substance, the Kd [3] was 264 µM.
